Assay results as given in article doi:10.1101/2022.05.21.492554.

Target: ACE2-Fc (UniProt Q9BYF1)
Test: SPR

Chain of ACE2-Fc (Q9BYF1 18-740): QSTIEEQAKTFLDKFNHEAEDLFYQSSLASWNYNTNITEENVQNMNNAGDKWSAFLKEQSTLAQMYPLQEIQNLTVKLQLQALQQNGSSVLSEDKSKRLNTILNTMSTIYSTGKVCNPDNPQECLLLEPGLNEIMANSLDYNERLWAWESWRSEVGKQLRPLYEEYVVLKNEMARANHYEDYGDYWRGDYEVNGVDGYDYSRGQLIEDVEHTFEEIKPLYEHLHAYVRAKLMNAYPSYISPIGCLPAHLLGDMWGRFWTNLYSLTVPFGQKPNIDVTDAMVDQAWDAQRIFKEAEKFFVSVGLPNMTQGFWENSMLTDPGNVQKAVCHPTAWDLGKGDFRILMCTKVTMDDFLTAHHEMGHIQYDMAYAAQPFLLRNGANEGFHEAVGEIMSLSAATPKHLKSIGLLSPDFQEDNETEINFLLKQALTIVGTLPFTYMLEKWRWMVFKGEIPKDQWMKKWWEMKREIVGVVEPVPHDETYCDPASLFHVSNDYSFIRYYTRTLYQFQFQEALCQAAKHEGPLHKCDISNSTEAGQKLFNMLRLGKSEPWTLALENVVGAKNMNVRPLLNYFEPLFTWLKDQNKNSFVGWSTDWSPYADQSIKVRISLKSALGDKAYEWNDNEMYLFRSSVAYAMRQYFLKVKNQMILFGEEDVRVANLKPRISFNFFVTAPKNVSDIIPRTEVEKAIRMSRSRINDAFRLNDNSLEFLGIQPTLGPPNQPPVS

Q: What does the source list for Wuhan RBD?
A: Kd: 7.3 nM; koff: 0.0051 s⁻¹
